Results taken from the supplement of paper PMC9170038.

Tested on: MS2 coat protein
Test: apparent KD of MS2 coat protein; designed switch direction (-1 OFF switch, 1 ON switch): 1; higher = weaker reporter binding
Procedure, shortened: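 The apparent KD reported per design is the median over clusters of curve fits to normalised cluster fluorescence. The RNA switches were transcribed on Illumina chips by stalled E. coli RNA polymerase. SNAP-549-labelled MS2 coat protein was titrated from 0.7 or 1.5 nM, doubling up to 3 µM, in Tris-HCl pH 7.5 buffer containing KCl, MgCl2, BSA, DTT, tRNA and Tween-20, with no input, 200 uM small-molecule ligand, or an oligonucleotide input.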

[1] = input ligand: microRNA oligo, concentration not stated
[2] = Eterna round: R95, input ligand: FMN 200 uM
[3] = Eterna round: R95, input ligand: microRNA oligo, concentration not stated
[4] = Eterna round: R95, input ligand: none

Row | Sequence | apparent KD of MS2 coat protein (input ligand: FMN 200 uM) [nM] | apparent KD of MS2 coat protein [1] [nM] | apparent KD of MS2 coat protein (input ligand: none) [nM] | apparent KD of MS2 coat protein [2] [nM] | apparent KD of MS2 coat protein [3] [nM] | apparent KD of MS2 coat protein [4] [nM]
1 | GUACAAAUCAUAGGAUAUGGGCGGGAAUGCCGUCCAGAAGGAUGAACAUGAGGAUCACCCAUGUCCGGCCGCAAAUACGCGGCC [Xexeti] (Eterna round: R96, puzzle: Same State NG 1) | 62.6 | 140 | 209 |  |  | 
2 | GUACAGAUUAUAGGAUAUCACGUCGUUUAGACGUGAGAAGGAUAAUCCCACAUGAAUAUUAAUACAUGAGGAUCACCCAUGUAC [SSNG1/18-B3] (Eterna round: R96, puzzle: Same State NG 1) | 21.8 | 27.7 | 30.7 |  |  | 
3 | GUACAUAUUAUAGGAUAUCACGUCGAUUAGACGUGAGAAGGAUAAUCCCACAUGAAUAUUAAUACAUGAGGAUCACCCAUGUAC [SSNG1/18-A2] (Eterna round: R96, puzzle: Same State NG 1) | 83.3 | 66.3 | 51 |  |  | 
4 | GUACUACAUGAGGAUCACCCAUGUACAAAAGUACGAGGAUAUGCAUGGACGAAAGUUGGUGCAGAAGGCGUAGUAC [Pin2Pin #3] (puzzle: Same State 1) |  |  |  | 20.2 | 25.9 | 24
5 | GUAGAUGUAGAGGAGGAUAUUCAAUGAGGAACAUGAGGAUCACCCAUGUAAGAGAGAGAUGAUAGGAAGAAGGCUUAGAGAGAUG [Altered State 2-5 - Jieux - Same State 2] (puzzle: Same State 2) |  |  |  | 24.2 | 31.7 | 43.1
6 | GUAGCAUACCGAGGAUAUUCAACAUGAGGAUCACCCAUGUGUUUAUUAUAGGCCAAAAGGCCUUGGGAGAAGGCGGAAUGCUAC [Xeonanis - 20 Mod15] (Eterna round: R96, puzzle: Same State NG 2) | 9.4 | 8.4 | 15.7 |  |  | 
7 | GUAGCAUACCGAGGAUAUUCAUAACCGAAAGGAACAUGAGGAUCACCCAUGUGGCGAAAGCCUUGGGAGAAGGCGGAAUGCUAC [Xeonanis - 20 Mod74] (Eterna round: R96, puzzle: Same State NG 2) | 42.8 | 291 | 957 |  |  | 
8 | GUAGCAUACCGAGGAUAUUCAUACAUGAGGAUCACCCAUGUUAAUAGGCCACAUUAGUGGCCUUGGGAGAAGGCGGAAUGCUAC [Xeonanis - 20 Mod46] (Eterna round: R96, puzzle: Same State NG 2) | 14.1 | 10.7 | 16.6 |  |  | 
9 | GUAGCAUACCGAGGAUAUUCAUAUACAUGAGGAUCACCCAUGUUAAUAUAGGCCAAAAGGCCUUGGGAGAAGGCGGAAUGCUAC [Xeonanis - 20 Mod11] (Eterna round: R96, puzzle: Same State NG 2) | 9.01 | 9.83 | 13.3 |  |  | 
10 | GUAGCAUACCGAGGAUAUUCAUAUACAUGAGGAUCACCCAUGUUUAUAGGUCGAUUACGACCUUGGGAGAAGGCGGAAUGCUAC [Xeonanis - 20 Mod31] (Eterna round: R96, puzzle: Same State NG 2) | 10.8 | 9.68 | 13.9 |  |  | 
11 | GUAGCAUACCGAGGAUAUUCAUAUAUACAUGAGGAUCACCCAUGUUAAAAUAGGCGAAAGCCUUGGGAGAAGGCGGAAUGCUAC [Xeonanis - 20 Mod67] (Eterna round: R96, puzzle: Same State NG 2) | 9.45 | 11.4 | 15 |  |  | 
12 | GUAGCAUACCGAGGAUAUUCAUAUUAACAUGAGGAUCACCCAUGUUUAGGCCGAUUACGGCCUUGGGAGAAGGCGGAAUGCUAC [Xeonanis - 20 Mod22] (Eterna round: R96, puzzle: Same State NG 2) | 10.9 | 14.9 | 25.1 |  |  | 
13 | GUAGCAUACCGAGGAUAUUCAUAUUACAUGAGGAUCACCCAUGUUAGGCCACAUUAGUGGCCUUGGGAGAAGGCGGAAUGCUAC [Xeonanis - 20 Mod40] (Eterna round: R96, puzzle: Same State NG 2) | 14.6 | 69.7 | 104 |  |  | 
14 | GUAGCAUACCGAGGAUAUUCAUUACAUGAGGAUCACCCAUGUUUUAUAGGCCGAUUACGGCCUUGGGAGAAGGCGGAAUGCUAC [Xeonanis - 20 Mod27] (Eterna round: R96, puzzle: Same State NG 2) |  | 9.7 |  |  |  | 
15 | GUAGCAUGCACCGAGGAUAUUCAUAUUAAAACAUGAGGAUCACCCAUGUAGGCCAAAAGGCCUUGGGAGAAGGCGGACAUGCUAC [Xeonanis - 21] (puzzle: Same State 2) |  |  |  | 23.5 | 178 | 422
16 | GUAGCCGGCACUGAGGAUAUUCAUAUUUAAACAUGAGGAUCACCCAUGUAGGCCAGAAGGCCUUGGGAGAAGGCAGGUCGGCUCG [salish99_ss2_r3_081] (puzzle: Same State 2) |  |  |  | 20.7 | 210 | 294

Row | Sequence | apparent KD of MS2 coat protein (input ligand: FMN 200 uM) [nM] | apparent KD of MS2 coat protein [1] [nM] | apparent KD of MS2 coat protein (input ligand: none) [nM] | apparent KD of MS2 coat protein [2] [nM] | apparent KD of MS2 coat protein [3] [nM] | apparent KD of MS2 coat protein [4] [nM]
17 | GUAUAACAUGAGGAUCACCCAUGUCAACAAAGUCGAGGAUAUGGGCAAUUAUAAUUAGAACCAGAAGGCGAAUAGU [Mat - Same State 1 - Mod of UCT - D43] (puzzle: Same State 1) |  |  |  | 30.8 | 287 | 251
18 | GUAUAACAUGAGGAUCACCCAUGUCAUCUAAGUCGAGGAUAUGGGCAAAUAAUAUAAGAACCAGAAGGCGAAUAUG [Mat - Same State 1 - Mod of UCT - D35] (puzzle: Same State 1) |  |  |  | 61.8 | 122 | 359
19 | GUAUCUUCAGGUUGCAAUGCUCGUCGGAUACAUGAGGAUCACCCAUGUUAUUAACCUGUGCUUGCGCGGGUAUGAUU [Photon Torp-01] (puzzle: Sensor for hsa-mir-208a) |  |  |  | 21.8 | 32.5 | 23.3
20 | GUCAACACAAUAGGAUAUUAGACCAUGGAGCCGUACAUGAGGAUCACCCAUGUCUUAGGUUGAUCUAAGAAGGAUUCGUGACGU [Eternabot solution 47] (Eterna round: R96, puzzle: Same State NG 2) | 53.4 | 59.1 | 86 |  |  | 
21 | GUCAGGCAAGCUUUUUUCUCGUAGUGUAAACAUGAGGAUCACCCAUGUGCUCGCCCUGGAUCUUUGGAUCGCGGAAA [Xeatesis] (puzzle: Sensor for hsa-mir-208a) |  |  |  | 34.6 | 19.8 | 36.5
22 | GUCCAAAACACAGGAUAUCCCAGUCAUGAUCUGGGAGAAGGGUGGCCACAUGAGGAUCACCCAUGUGAAGUGCCAGAGGCACGA [Xexeraed] (Eterna round: R96, puzzle: Same State NG 1) | 373 | 876 | 1020 |  |  | 
23 | GUGCAACCGUGUGAGGAUAUCGGUGGUAAAACAUGAGGAUCACCCAUGUCCGAAGCUCGGAUCUCCGAGAAGGCGCACAGUUGCA [Same State 2 - Mod of Erisin v.2] (puzzle: Same State 2) |  |  |  | 27.8 | 290 | 470
24 | GUGCUCGUGUGAGGAUAUGCUUCCGUUUCGGCUGCAGAAGGUACUAUUAUACAUGAGGAUCACCCAUGUCCCUUUUCUCCGGUG [salish99_SSNG1_r04_914] (Eterna round: R96, puzzle: Same State NG 1) | 18.4 | 13.5 | 21.9 |  |  | 
25 | GUGGAGGGUUGAGGAUAUUGAAUACAUAUGUUUAACAUGAGGAUCACCCAUGUGGGUUGCGGUAUCGAGAAGGUAGGUUGCUGG [salish99_SSNG2_r04_039] (Eterna round: R96, puzzle: Same State NG 2) | 96.7 | 45.2 | 84.9 |  |  | 
26 | GUGGCACAUGAGGAUCACCCAUGUAGGUAGAACAUAGGAUAUCACCAACAAAAUACCUGGUGAGAAGGAUGAUGCC [Zaesleer] (puzzle: Same State 1) |  |  |  |  | 143 | 
27 | GUGGCCCAGGCACAGGAUAUGUUUCUCGUAACAUGAGGAUCACCCAUGUGCCUAUGAGAUUUAAUGCAGAAGGGUGCACGCCACA [Mat - Same State 2 - Mod of UCT - D78] (puzzle: Same State 2) |  |  |  | 18.8 | 164 | 199
28 | GUGGUCAGACAUGAGGAUCACCCAUGUGGAAUAAAUAACGAACAGGAUAUUCAAUAUAGGAUAUAGAAGAAGGGUUGAUUGGUG (Eterna round: R96, puzzle: Same State NG 3) | 204 | 171 | 187 |  |  | 
29 | GUGGUCAGACAUGAGGAUCACCCAUGUGGAAUAAAUAACGUACAGGAUAUGCAAUAUAGGAUAUAGUAGAAGGGUAGAUUGGUG (Eterna round: R96, puzzle: Same State NG 3) | 116 | 95 | 123 |  |  | 
30 | GUGGUCAGACAUGAGGAUCACCCAUGUGGAAUAAAUAACGUCAAGGAUAUAUAAUAUAGGAUAUAAUAGAAGGUGAGAUUGGUG (Eterna round: R96, puzzle: Same State NG 3) | 108 | 107 | 119 |  |  | 
31 | GUGGUCAGACAUGAGGAUCACCCAUGUGGAAUAAAUAAGGAACAGGAUAUGGAAUAUAGGAUAUACCAGAAGGGUUGGUUGGUG (Eterna round: R96, puzzle: Same State NG 3) |  | 62.3 |  |  |  | 
